Source: article PMC12808100 (Nature Communications, 2025)
Each block holds one binder with its values, some of them ahead of it. *: point of attachment. carboxyfluorescein = carboxyfluorescein on the N-terminus (no linker); Biotin = O=C1N[C@H]2[C@H](CS[C@H]2CCCCC(=O)*)N1; TTDS = Trioxatridecan-succinamic acid linker

Experiments:
[1] = target: T1, His6-AviTag-MBP-TEV-POLE2 (human, UniProt P56282 1-527, biotin on the AviTag (BirA co-expressed, biotin in the medium)); experiment: native holdup (nHU) titration with dot blot; purified His6-avi-MBP-tagged POLE2 as bait on resin; extracts of HEK293T cells transfected with HA-tagged full length proteins; 4 °C, 2 h; anti-HA dot blot; apparent; details: one partner purified
T1 construct: POLE2, residues 1-527; a TEV site lies between MBP and POLE2; also called His6-avi-MBP-tagged POLE2; avi-His6-MBP-POLE2; source: E. coli BL21(DE3), co-expressed with BirA, purified (HisTrap, MBPtrap, Q HP); not shown: His6, N-terminal, kept; AviTag, N-terminal, kept; MBP, N-terminal, kept

[2] = target: T1, His6-AviTag-MBP-TEV-POLE2; experiment: fluorescence polarisation; competitive; dilution series of the non-fluorescent DONSON peptide added to 50 nM fluoDONSON and 3.85 μM POLE2 protein; same buffer as the direct experiment; details: both partners purified
HA-POLE2 = target: T2, HA-POLE2 (human, UniProt P56282 1-527); experiment: native holdup (nHU) titration with dot blot; DONSON_71-88-saturated streptavidin resin mixed with control resin at various proportions; extracts of HEK293T cells expressing HA-tagged POLE2 variants; 4 °C, 2 h; depletion quantified with an antibody against the HA tag; apparent; details: one partner purified
T2 construct: POLE2, residues 1-527; also called HA-POLE2 wild type; source: HEK293T, transfected, in cell extract; not shown: HA, N-terminal, kept

[3] = target: T1, His6-AviTag-MBP-TEV-POLE2; experiment: fluorescence polarisation; direct; dilution series of MBP-POLE2 added to 50 nM fluoDONSON peptide; 20 mM Hepes pH 7.5, 150 mM NaCl, 0.5 mM TCEP, 0.01% Tween 20; details: both partners purified

T1 sequence (P56282 whole entry, the tested form may be a part): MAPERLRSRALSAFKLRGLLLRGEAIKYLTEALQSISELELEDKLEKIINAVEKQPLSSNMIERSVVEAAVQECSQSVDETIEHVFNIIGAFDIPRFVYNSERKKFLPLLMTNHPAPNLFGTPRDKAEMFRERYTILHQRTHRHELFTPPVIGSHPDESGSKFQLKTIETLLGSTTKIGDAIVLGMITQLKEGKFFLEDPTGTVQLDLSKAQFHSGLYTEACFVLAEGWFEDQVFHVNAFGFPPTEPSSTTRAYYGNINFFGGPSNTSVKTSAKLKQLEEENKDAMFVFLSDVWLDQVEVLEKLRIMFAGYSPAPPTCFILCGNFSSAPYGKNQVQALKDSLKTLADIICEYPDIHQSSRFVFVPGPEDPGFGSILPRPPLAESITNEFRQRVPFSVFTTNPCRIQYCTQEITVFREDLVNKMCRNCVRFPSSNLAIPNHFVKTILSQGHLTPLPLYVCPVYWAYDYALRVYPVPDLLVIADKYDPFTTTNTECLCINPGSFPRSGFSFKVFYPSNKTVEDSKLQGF
T2 sequence (P56282 whole entry, the tested form may be a part): as above

fold weaker affinity than the wild type [1]: 10 fold
B1: HA-ERCC6L, full length, NPF motif mutated to KAF (natural protein, human, UniProt Q2NKX8 1-1250, looked up)
chain: MEASRRFPEAEALSPEQAAHYLRYVKEAKEATKNGDLEEAFKLFNLAKDIFPNEKVLSRIQKIQEALEELAEQGDDEFTDVCNSGLLLYRELHNQLFEHQKEGIAFLYSLYRDGRKGGILADDMGLGKTVQIIAFLSGMFDASLVNHVLLIMPTNLINTWVKEFIKWTPGMRVKTFHGPSKDERTRNLNRIQQRNGVIITTYQMLINNWQQLSSFRGQEFVWDYVILDEAHKIKTSSTKSAICARAIPASNRLLLTGTPIQNNLQELWSLFDFACQGSLLGTLKTFKMEYENPITRAREKDATPGEKALGFKISENLMAIIKPYFLRRTKEDVQKKKSSNPEARLNEKNPDVDAICEMPSLSRKNDLIIWIRLVPLQEEIYRKFVSLDHIKELLMETRSPLAELGVLKKLCDHPRLLSARACCLLNLGTFSAQDGNEGEDSPDVDHIDQVTDDTLMEESGKMIFLMDLLKRLRDEGHQTLVFSQSRQILNIIERLLKNRHFKTLRIDGTVTHLLEREKRINLFQQNKDYSVFLLTTQVGGVGLTLTAATRVVIFDPSWNPATDAQAVDRVYRIGQKENVVVYRLITCGTVEEKIYRRQVFKDSLIRQTTGEKKNPFRYFSKQELRELFTIEDLQNSVTQLQLQSLHAAQRKSDIKLDEHIAYLQSLGIAGISDHDLMYTCDLSVKEELDVVEESHYIQQRVQKAQFLVEFESQNKEFLMEQQRTRNEGAWLREPVFPSSTKKKCPKLNKPQPQPSPLLSTHHTQEEDISSKMASVVIDDLPKEGEKQDLSSIKVNVTTLQDGKGTGSADSIATLPKGFGSVEELCTNSSLGMEKSFATKNEAVQKETLQEGPKQEALQEDPLESFNYVLSKSTKADIGPNLDQLKDDEILRHCNPWPIISITNESQNAESNVSIIEIADDLSASHSALQDAQASEAKLEEEPSASSPQYACDFNLFLEDSADNRQNFSSQSLEHVEKENSLCGSAPNSRAGFVHSKTCLSWEFSEKDDEPEEVVVKAKIRSKARRIVSDGEDEDDSFKDTSSIKAFNTSLFQFSSVKQFDASTPKNDISPPGRFFSSQIPSSVNKSMNSRRSLASRRSLINMVLDHVEDMEERLDDSSEAKGPEDYPEEGVEESSGEASKYTEEDPSGETLSSENKSSWLMTSKPSALAQETSLGAPEPLSGEQLVGSPQDKAAEATNDYETLVKRGKELKECGKIQEALNCLVKALDIKSADPEVMLLTLSLYKQLNNN
notes: ERCC6L, residues 1-1250; also called mutated version of ERCC6L; source: HEK293T, transfected, in cell extract; not shown: HA, N-terminal, kept

Kd [2]: 13 µM
Kd (HA-POLE2): 0.28 µM
B2: NPF motif peptide of DONSON (residues 71-88) (peptide)
peptide: {Biotin-TTDS}-GPAAARRNPFARLDNRPR-NH2
notes: Protein downstream neighbor of Son (DONSON), residues 71-88; also called DONSON_71-88; DONSON NPF motif; source: synthetic peptide (ABI 443 A synthesizer, Fmoc), HPLC purified

Kd [3]: 16 µM
B3: fluoDONSON peptide (residues 71-88) (peptide)
peptide: carboxyfluorescein-GPAAARRNPFARLDNRPR-NH2
notes: DONSON, residues 71-88; also called fluorescein-labeled DONSON_71-88 peptide; fluorescent NPF motif peptide; source: synthetic peptide, HPLC purified

fold weaker affinity than the wild type [1]: ~4 fold
B4: HA-TTF2, full length, N-terminal NPF motif mutated to KAF (natural protein, human, UniProt Q9UNY4 1-1162, looked up)
chain: MEEVRCPEHGTFCFLKTGVRDGPNKGKSFYVCRADTCSFVRATDIPVSHCLLHEDFVVELQGLLLPQDKKEYRLFFRCIRSKAEGKRWCGSIPWQDPDSKEHSVSNKSQHASETFHHSSNWLRKAFKVLDKNQEPALWKQLIKGEGEEKKADKKQREKGDQLFDQKKEQKPEMMEKDLSSGLVPKKKQSVVQEKKQEEGAEIQCEAETGGTHKRDFSEIKSQQCQGNELTRPSASSQEKSSGKSQDVQRESEPLREKVTQLLPQNVHSHNSISKPQKGGPLNKEYTNWEAKETKAKDGPSIQATQKSLPQGHFQERPETHSVPAPGGPAAQAAPAAPGLSLGEGREAATSSDDEEEDDVVFVSSKPGSPLLFDSTLDLETKENLQFPDRSVQRKVSPASGVSKKVEPSDPVARRVYLTTQLKQKKSTLASVNIQALPDKGQKLIKQIQELEEVLSGLTLSPEQGTNEKSNSQVPQQSHFTKTTTGPPHLVPPQPLPRRGTQPVGSLELKSACQVTAGGSSQCYRGHTNQDHVHAVWKITSEAIGQLHRSLESCPGETVVAEDPAGLKVPLLLHQKQALAWLLWRESQKPQGGILADDMGLGKTLTMIALILTQKNQEKKEEKEKSTALTWLSKDDSCDFTSHGTLIICPASLIHHWKNEVEKRVNSNKLRVYLYHGPNRDSRARVLSTYDIVITTYSLVAKEIPTNKQEAEIPGANLNVEGTSTPLLRIAWARIILDEAHNVKNPRVQTSIAVCKLQACARWAVTGTPIQNNLLDMYSLLKFLRCSPFDEFNLWRSQVDNGSKKGGERLSILTKSLLLRRTKDQLDSTGRPLVILPQRKFQLHHLKLSEDEETVYNVFFARSRSALQSYLKRHESRGNQSGRSPNNPFSRVALEFGSEEPRHSEAADSPRSSTVHILSQLLRLRQCCCHLSLLKSALDPMELKGEGLVLSLEEQLSALTLSELRDSEPSSTVSLNGTFFKMELFEGMRESTKISSLLAELEAIQRNSASQKSVIVSQWTNMLKVVALHLKKHGLTYATIDGSVNPKQRMDLVEAFNHSRGPQVMLISLLAGGVGLNLTGGNHLFLLDMHWNPSLEDQACDRIYRVGQQKDVVIHRFVCEGTVEEKILQLQEKKKDLAKQVLSGSGESVTKLTLADLRVLFGI
notes: TTF2, residues 1-1162; only the N-terminal NPF motif mutated; also called TTF2 mutant; source: HEK293T, transfected, in cell extract; not shown: HA, N-terminal, kept
